# Target: Nn8 (fraction 8 from N. nivea venom) (Naja nivea, UniProt P01390, biotin (site not stated))
# Test: BLI
# Sequence of Nn8 (fraction 8 from N. nivea venom) (P01390 whole entry, looked up): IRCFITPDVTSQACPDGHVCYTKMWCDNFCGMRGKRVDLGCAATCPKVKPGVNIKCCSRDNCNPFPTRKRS
binder,measurement,value
TPL1158_01_C09 (VHH) VHH: QVQLQESGGGLVQPGGSLRLSCAASGDIGGLKQMGWYRQAPGHQRELVAVKRNENEANYTESVKGRFTISRDNARKMVYLQMNSLKPEDTAVYYCNAVVGNWYTSGYYEDTYWGQGTQVTVSS,Kd,0.063 µM

# Source: paper PMC12274480 (Communications Chemistry, 2025)
